Measurements as given in patent US20150351390A1, “COMPOSITIONS AND METHODS FOR AUXIN-ANALOG CONJUGATION” (PIONEER HI-BRED INTERNATIONAL, INC., priority 2012, published 2015).

B1: VvGH3-3: GH3 protein, accession XP_002283229 (protein, listed as Vitis vinifera)
chain: MPEAPKKSFKATGHDYCLAEKNKKALQFIEDVTTNADQVQKRVLAEILTRNAHVEYLHRHGLGGHTDRDTFKKLMPVITYEDLQPDITRIANGDTSLILCSNPISEFLTSSGTSGGERKLMPTIEEELERRSLLYSLLMPVMSQSVQGLEKGKGMYFLFIKSEAKTPGGLVARPVLTSYYKSSHFRERPYDPYTNYTSPNETILCPDSYQSMYSQMLCGLVQNKEVLRVGAVFASGFIRAIRFLEKHWTLLCRDIRTGTIDQQITDPSVREAVMRVLKPDPKLADFVEGECRKESWQGIITRLWPNTKYVDVIVTGTMSQYIPTLDYYSNDLPLVCTMYASSECYFGVNLNPLCKPSEVSYTLIPTMAYFEFLPVHRNNGTNSISVPKSLNDKEQQDLVDLVDVKLGQEYELVVTTYAGLYRYRVGDVLRVAGFKNKAPQFNFVCRKNVVLSIDSDKTDEVELQAAVKNAVNHLMPFDATLTEYTSYADTTTIPGHYVLYWELSLRGSTPIPPSVFEDCCLTVEESLNSVYRQGRVSDKSIGPLEMKIVESGTFDKLMDYAISLGASINQYKTPRCVKFAPIIELLNSRVVSNYFSPKCPKWIPGHKQWCNKN
B2: VvGH3-5: GH3 protein, accession XP_002276241 (protein, listed as Vitis vinifera)
chain: MPEAPKNRGNGAGLGVEGGILDDKNIRALEFIEDVTMNAKEVQMQVLSEIITRNSNVEYLQRHGLNGRVDADTFKKIVPVVTYEDMLPDIERIANGDMSPILCSKPISEFLTSSGTSGGERKLMPTIEEELGRRSLLYSLLMPVMNQSVPGLDEGKGMYFLFVKSEAKTPGGLMARPVLTSYYKSSYFRDRPYDPYTNYTSPNETILCPDSYQSMYSQLLCGLCQNKEVLRVGAVFASGFIRAIRFLEKHWVLLCKDIRAGTLDSQINDPSVREAVKRILKPNPELADFIEAECRRESWEGIITRLWPNTKYIDVIVTGTMSQYIPTLDYYSNGLPLVCTMYASSECYFGLNLNPLCKPSEVSYTLIPTMAYFEFLPVNRKNGFTNVSESAPLNEKEHQELVDLVDVKLGQEYELVVTTYAGLYRYRVGDILCVAGFKNKAPQFKFICRKNVALSIDSDKTDEFELQNAVKNAADHLLQFDASVTEYTSYADTSTIPGHYVLYWEIGLSGATPIPPSVFEDCCLIMEESLNSVYRQGRASDKSIGPLEIRIVEGGTFDKLMDYALSQGASINQYKTPRCVKYAPIIELLNSRVVSNYFSPKCPKWVAGHKQWCT
B3: VvGH3-2: GH3 protein, accession XP_002283886 (protein, listed as Vitis vinifera)
chain: MAVDSGLSSPLGPPACEKDAKALQFIEEMTRNPDQVQEKILAEILSQNGETEYLQRFKLAGATDRDTFKSKVPVVTYEDLQPDIQRIANGDRSPILSSHPISEFLTSSGTSAGERKLMPTIHEEWDRRQKLYSLLMPVMNLYVPGLDKGKGLYFLFVKSETKTPSGLVARPVLTGYYRSEHFKKRPYDPYNVYTSPDEAILCVDSFQSMYAQMLCGLLMHKEVLRVGAVFASGLLRAIRFLQVHWQQLAHDISTGILNPKITDPSVREGLAGILKPSQELADFIIQECSGGNWERIITRIWPNTKYLDVIVTGAMAQYIPTLDYFSGGIPLACTMYASSECYFGLNLKPMSKPSEVSYTIMPNMGYFEFLPHDPSAPPLSRDSPPRLVDLADVEVGKEYELVITTYAGLCRYRVGDILQVTGFHNSAPQFQFIRRKNVLLSIDSDKTDEAELQKAVENASLLLREFNTSVVEYTSFADTKTIPGHYVIYWELLVKDPSNSPTDTVLKQCCLAMEESLNTVYRQGRVADNSIGPLEIRVVKSGTFEELMDYAISRGASINQYKVPRCVNFTPIMELLDSRVLSTYFSPAAPHWTPERRRTD
B4: VvGH3-1: GH3 protein, accession XP_002271252 (protein, listed as Vitis vinifera)
chain: MAVDPILSSPLGPAASEKDAKALQFIEEMTRNADSVQERVLAEILSRNGETEYLKRFKLEGSTVRETFKSKIPVIKYEDLQPEIQRIANGDRSAILSAHPISEFLTSSGTSAGERKLMPTIQEELDRRQMLYSLLMPVMNLYVPGLDKGKGLYFLFVKSETRTPGGLLARPVLTSYYKSEHFKTRPYDPYNVYTSPNEAILCADSFQSMYTQMLCGIYERKQVLRLGAVFASGLLRAIRFLQLNWHQLTHDIRTGTLSPKITDPSVRNCVAGVLKPDPELADLVAGECSKDNWEGIITRIWPNTKYLDVIVTGAMAQYIPTLDYYSGGLPLACTMYASSECYFGLNLNPMSKPSEVSYTIMPNMAYFEFLPHEHSSIPLSRDSPPRLVDLAHVEVGKEYELVITTYAGLYRYRVGDILRVTGFHNSAPQFHFVRRKNVLLSIDSDKTDEAELQKAVDNASKLLREVNTSVVEYTSFADTKTIPGHYVIYWELLVKDSANSPSDELLGQCCLAMEESLNSVYRQGRVADNSIGPLEIRVVKSGTFEELMDYAISRGASINQYKVPRCVNFTPIMELLDSRVVSSHFSPALPHWTPARRR
B5: AIGH3-17: GH3 protein, accession XP_002890761 (protein, listed as Arabidopsis lyrata)
chain: MIPSYDPNDTEAGLKLLDDLTTNAETIQQQVLHQILSQNSGTQYLRAFLDGESDKNQQSFKNKVPVVNYDDIKPFIQRIADGESYDIVSAQPITELLTSSGTSAGKPKLMPSTAEELDRKTFFYSMLVPIMNKYVNGLDEGKGMYLLFIKPEIKTPSGLMARPVLTSYYKSQHFRNRPFNKYNVYTSPDQTILCQDSKQSMYCQLLCGLVQRSHVLRVGAVFASAFLRAVKFLEDHYKELCADIRTGTVTSWITNSSCRDSVLSILNGPNQELADEIESECAEKSWEGILRRIWPKAKYVEVIVTGSMAQYIPTLEFYSGGLPLVSTMYASSECYFGINLNPLCDPADVSYTLLPNMAYFEFLPVDDKSHEEIHFASHSNTDDDDDALKEDLIVDLVNVKVGQYYEIVITTFTGLYRYRVGDILKVTGFHNKAPQFRFVQRRNVVLSIDTDKTSEEDLLNAVTQAKLNHLQHPSSLLLMEYTSYADTSSIPGHYVLFWELKPRHSNDPPKLDDKTMDDCCSEVEDCLDYVYRRCRNRDKSIGPLEIRVVSLGTFDSLMDFCVSQGSSLNQYKTPRCVKSGGALEILDSRVIGRFFSKRVPQWEPLGLDS

Columns and labels:
soybean seedlings = test: Soybean seedling response to spot infiltrated auxins and conjugates; on 1st trifoliate leaf curl: key: 0 = no phenotype; +/− = threshold; on Chlorotic lesion @ app. Pnt: key: 0 = no phenotype; +/− = threshold; type: in vivo; parameters: 1st trifoliate leaf curl / Epinasty score: key: 0 = no phenotype; +/− = threshold; conditions: for 1st trifoliate leaf curl / Chlorotic lesion @ app. Pnt / Epinasty score: spot infiltration
Protocol: Conjugate forms of auxinic compounds when applied through spot infiltration, a needleless method to introduce exogenous agents into plant cells. Initially, various concentrations of analytical grade (98%+pure) IAA, 2,4-D, and dicamba were prepared as solutions that were applied directly to uni-foliate leaves of 9 day old soybean seedlings by spot infiltration in order to determine the range of auxinic response and severity.
Spot infiltration comprises applying a compound to be tested in composition that is applied to the surface of a plant, for example, to a leaf or other plant structure. For example, a method for testing a plant response to one or more compounds using spot infiltration comprises a) providing a composition comprising one or more compounds to be tested in a container having at least an opening for the compound enter and/or exit, and one or more elements for moving the composition into or out of the container; b) contacting at least one opening of the container with the surface of a plant and moving the composition comprising one or more compounds to at least the surface of the plant. A container and elements for moving the composition may comprise a syringe body and plunger. Moving the composition to the plant surface comprises contacting the surface with pressure sufficient for the composition to enter the cells of the plant. In an aspect, spot filtration testing comprises measuring an effect of the composition on the contacted plant and comparing that measure or effect to a plant that is not contacted with the composition.
Plant response phenotypes were documented at one day post-spot infiltration and subsequently every other day, up to nine days post treatment. […] In the studies described herein below, 5 replicate treatments for each conjugate form were conducted, along with appropriate negative controls.
Examples 9 and 10 utilized a spot infiltration method for the delivery of an herbicide directly to leaves of a plant. The method generally allows for the directed delivery of a variety of agents to a localized area of a plant, e.g. localized region of leaves, for screening or assessment purposes, e.g. to quickly assess the response of a plant to the agent. As used in the foregoing examples, the spot infiltration method was used to introduce specific herbicides or specific conjugates of the herbicides to seedling plant leaves. Following introduction of the herbicide or the appropriate conjugate, plants were observed daily for nine days for characteristics of epinasty, trifoliate leaf curly, chlorosis, and new growth recovery.
Briefly, a solution of the desired agent is prepared of the desired agent, e.g. as described above in Example 10, solutions (5% EtOH) of 1, 2.5 and 5 mM IAA. The solution is then drawn into a 1 mL BD™ slip-tip syringe, bulk, non-sterile syringe (e.g. Becton, Dickinson and Company, Product No. 301025) with 100 μL markings. The desired volume is then applied to the leaf, e.g. as described in Examples 9 and 10, with the tip of the syring against the leaf and positive pressure applied to the syringe plunger. Sufficient pressure is applied in order to infuse the area beneath the syringe opening, but not so much pressure as to cause a visible-to-the-eye puncture or hole to form in the leaf. Some run-off of solution around the syringe opening is expected. In the foregoing examples, two spots were applied to each of two leaves per seedling for soybean plants. […] In soybean, both spots per leaf were at the distal portion of the leaf about 1-2 cm apart. When the method was applied to Arabidopsis, two developmentally intermediate aged leaves were chosen per plant, and one spot infiltration was carried out per leaf.

[1] = LC-MS assay of GH3 conjugation of IAA with Asp or Glu; type: biochemical; conditions: for kcat (hrs−1) IAA-Asp: conjugation of IAA with Asp by recombinant GH3 protein, IAA-Asp product by LC-MS; for kcat (hrs−1) IAA-Glu: conjugation of IAA with Glu by recombinant GH3 protein, IAA-Glu product by LC-MS
Outline: (§1)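 N-His-tagged GH3 homologs expressed in E. coli C41(DE3) and Ni-NTA purified (44 to 164 μg/mL) were incubated 3 hours at 30° C. in 20 mM Tris-HCl pH 8.0, 5 mM MgCl2, 1 mM DTT with 5 mM each of auxin, ATP and Asp or Glu. Conjugates were quantified by LC-MS against standards.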

[2] = LC-MS assay of GH3 conjugation of 2,4-D with Asp or Glu; type: biochemical; conditions: 5 mM 2,4-D substrate; for kcat (hrs−1) 2,4-D-Asp: conjugation of 2,4-D with Asp by recombinant GH3 protein, 2,4-D-Asp product by LC-MS; for kcat (hrs−1) 2,4-D-Glu: conjugation of 2,4-D with Glu by recombinant GH3 protein, 2,4-D-Glu product by LC-MS
Outline: as §1

Molecule | kcat (hrs−1) IAA-Asp [1] [h⁻¹] | kcat (hrs−1) IAA-Glu [1] [h⁻¹] | kcat (hrs−1) 2,4-D-Asp [2] [h⁻¹] | kcat (hrs−1) 2,4-D-Glu [2] [h⁻¹] | other results
O=C(COc1ccc(Cl)cc1Cl)NC(Cc1ccccc1)C(=O)O [2,4-D-Phe] |  |  |  |  | 1st trifoliate leaf curl (soybean seedlings; 100 μM): 0; 1st trifoliate leaf curl (soybean seedlings; 250 μM): 0; 1st trifoliate leaf curl (soybean seedlings; 500 μM): 0
O=C(Cc1c[nH]c2ccccc12)NC(Cc1ccccc1)C(=O)O (stereo not shown) [IAA-Phe] |  |  |  |  | 1st trifoliate leaf curl (soybean seedlings; 1.0 mM): 0; Chlorotic lesion @ app. Pnt (soybean seedlings; 1.0 mM): 0; Epinasty score (soybean seedlings; 1.0 mM): 0; 1st trifoliate leaf curl (soybean seedlings; 2.5 mM): 0; Chlorotic lesion @ app. Pnt (soybean seedlings; 2.5 mM): 0; Epinasty score (soybean seedlings; 2.5 mM): 0; 1st trifoliate leaf curl (soybean seedlings; 5.0 mM): 0; Chlorotic lesion @ app. Pnt (soybean seedlings; 5.0 mM): 0; Epinasty score (soybean seedlings; 5.0 mM): 0; Plant response phenotype, soybean (soybean seedlings; 1, 2.5 and 5 mM, result in words): No discernable phenotype; Lesion on leaf surface at point of application, soybean (soybean seedlings; dissolved in 50% EtOH, consistent with 50% EtOH alone control): necrotic lesion on leaf surface at point of application
B1 | 1006.325 | 79.770 | 5.615 | 1.602 | 
B2 | 759.486 | 47.289 | 2.603 | 0.974 | 
B3 | 1011.181 | 45.833 | 5.691 | 1.113 | 
B4 | 964.027 | 45.433 | 2.529 | 0.635 | 
B5 | 33.508 | 317.690 | 0.212 | 0.455 | 
